The record followed here is patent publication US20170165338A1.

In the experiment the target is HLA-A*02 (human). Nature of the experiment: UV-exchange b2m ELISA. A general note: ELISA stands for enzyme-linked immunosorbent assay.

For SLTEVSLPL […], the peptide exchange yield was 50 to 75%.
